Laboratory results reported in the RNAGym collection of RNA variant scans (doi:10.1093/molbev/msab373).

B1: Azoarcus group I ribozyme (parent)
chain: GUGCCUUGCGCCGGGAAACCACGCAAGGGAUGGUGUCAAAUUCGGCGAAACCUAAGCGCCCGCCCGGGCGUAUGGCAACGCCGAGCCAAGCUUCGGCGCCUGCGCCGAUGAAGGUGUAGAGACUAGACGGCACCCACCUAAGGCAAACGCUAUGGUGAAGGCAUAGUCCAGGGAGUGGCGAAAGUCACACAAACCGG

Variants of: B1
Test: reverse-splicing fitness (ratio to wild type); higher = more active; in vitro selection; Mg2+ level not given
Summary of the method: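 An in vitro group I ribozyme library with randomized positions was T7-transcribed and gel-purified. In triplicate, 10 pmol RNA in EPPS pH 7.5 was reacted with 50 pmoles of a 30-nt RNA substrate for 1 h at 37 °C across several added MgCl2 levels (1–48 mM), then stopped with EDTA. Products were reverse transcribed from a substrate-complementary primer, PCR-amplified and sequenced (HiSeq 4000). Fitness is a variant's read proportion after selection over that before, normalised to wild type.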

Point of comparison: C82U A120G C150A C169U U176A, reverse-splicing fitness 0.0211. Against it:
- C82U A120G A145U C150U C169U U176G — lower, 0.00327
- C82U A120G A145U C150U U176A — lower, 0.0102
- C82U A120G A145U C150U U176C — lower, 0.0143
- C82U A120G A145U C150U U176G — lower, 0.00369
- C82U A120G A145U C169A — lower, 0.017
- C82U A120G A145U C169A U176A — lower, 0.00994
- C82U A120G A145U C169A U176C — lower, 0.0105
- C82U A120G A145U C169A U176G — lower, 0.00294
- C82U A120G A145U C169G — higher, 0.0232
- C82U A120G A145U C169G U176A — lower, 0.0111
- C82U A120G A145U C169G U176C — lower, 0.0138
- C82U A120G A145U C169G U176G — lower, 0.00314
- C82U A120G A145U C169U — lower, 0.0182
- C82U A120G A145U C169U U176A — higher, 0.0216
- C82U A120G A145U C169U U176C — lower, 0.0159
- C82U A120G A145U C169U U176G — lower, 0.00326
- C82U A120G A145U U176A — lower, 0.0127
- C82U A120G A145U U176C — lower, 0.0139
- C82U A120G A145U U176G — lower, 0.00403
- C82U A120G C150A — lower, 0.00924
- C82U A120G C150A C169A — lower, 0.0118
- C82U A120G C150A C169A U176A — lower, 0.0174
- C82U A120G C150A C169A U176C — lower, 0.0164
- C82U A120G C150A C169A U176G — lower, 0.00477
- C82U A120G C150A C169G — lower, 0.0102
- C82U A120G C150A C169G U176A — lower, 0.018
- C82U A120G C150A C169G U176C — higher, 0.0214
- C82U A120G C150A C169G U176G — lower, 0.00456
- C82U A120G C150A C169U — lower, 0.00872
- C82U A120G C150A C169U U176C — lower, 0.0174
- C82U A120G C150A C169U U176G — lower, 0.00606
- C82U A120G C150A U176A — lower, 0.0116
- C82U A120G C150A U176C — lower, 0.0166
- C82U A120G C150A U176G — lower, 0.00583
- C82U A120G C150G — lower, 0.00711
- C82U A120G C150G C169A — lower, 0.00923
- C82U A120G C150G C169A U176A — lower, 0.00927
- C82U A120G C150G C169A U176C — lower, 0.00979
- C82U A120G C150G C169A U176G — lower, 0.00547
- C82U A120G C150G C169G — lower, 0.0077
- C82U A120G C150G C169G U176A — lower, 0.00641
- C82U A120G C150G C169G U176C — lower, 0.0046
- C82U A120G C150G C169G U176G — lower, 0.00357
- C82U A120G C150G C169U — lower, 0.00921
- C82U A120G C150G C169U U176A — lower, 0.0125
- C82U A120G C150G C169U U176C — lower, 0.0118
- C82U A120G C150G C169U U176G — lower, 0.00521
- C82U A120G C150G U176A — lower, 0.00577
- C82U A120G C150G U176C — lower, 0.00821
- C82U A120G C150G U176G — lower, 0.00278
- C82U A120G C150U — lower, 0.0161
- C82U A120G C150U C169A — lower, 0.0144
- C82U A120G C150U C169A U176A — lower, 0.016
- C82U A120G C150U C169A U176C — lower, 0.014
- C82U A120G C150U C169A U176G — lower, 0.00423
- C82U A120G C150U C169G — lower, 0.0167
- C82U A120G C150U C169G U176A — lower, 0.015
- C82U A120G C150U C169G U176C — lower, 0.0189
- C82U A120G C150U C169G U176G — lower, 0.00429
- C82U A120G C150U C169U — lower, 0.0137
- C82U A120G C150U C169U U176A — higher, 0.0237
- C82U A120G C150U C169U U176C — lower, 0.0185
- C82U A120G C150U C169U U176G — lower, 0.00509
- C82U A120G C150U U176A — lower, 0.0106
- C82U A120G C150U U176C — lower, 0.0148
- C82U A120G C150U U176G — lower, 0.00504
- C82U A120G C169A — lower, 0.0184
- C82U A120G C169A U176A — lower, 0.0194
- C82U A120G C169A U176C — higher, 0.0213
- C82U A120G C169A U176G — lower, 0.00354
- C82U A120G C169G — higher, 0.0242
- C82U A120G C169G U176A — higher, 0.0215
- C82U A120G C169G U176C — higher, 0.0246
- C82U A120G C169G U176G — lower, 0.00332
- C82U A120G C169U — lower, 0.0177
- C82U A120G C169U U176A — higher, 0.0244
- C82U A120G C169U U176C — lower, 0.0176
- C82U A120G C169U U176G — lower, 0.0054
- C82U A120G U176A — lower, 0.0132
- C82U A120G U176C — lower, 0.0175
- C82U A120G U176G — lower, 0.00399
- C82U A120U — higher, 0.174
